Publication PMC7691434, “Interaction Analysis of a Plasmodium falciparum PHISTa-like Protein and PfEMP1 Proteins” (Frontiers in Microbiology, 2020)

T1: PF3D7_0800200 (acidic C-terminal segment (ATS) domain, 2,466-2,858 aa)-His (Plasmodium falciparum, UniProt Q8IAK2 2466-2858)
T1 construct: the reverse primer has no stop codon), which would give a C-terminal His tag; also called ATS-His; PfEMP1 ATS; source: E. coli BL21 (DE3), purified
T1 sequence: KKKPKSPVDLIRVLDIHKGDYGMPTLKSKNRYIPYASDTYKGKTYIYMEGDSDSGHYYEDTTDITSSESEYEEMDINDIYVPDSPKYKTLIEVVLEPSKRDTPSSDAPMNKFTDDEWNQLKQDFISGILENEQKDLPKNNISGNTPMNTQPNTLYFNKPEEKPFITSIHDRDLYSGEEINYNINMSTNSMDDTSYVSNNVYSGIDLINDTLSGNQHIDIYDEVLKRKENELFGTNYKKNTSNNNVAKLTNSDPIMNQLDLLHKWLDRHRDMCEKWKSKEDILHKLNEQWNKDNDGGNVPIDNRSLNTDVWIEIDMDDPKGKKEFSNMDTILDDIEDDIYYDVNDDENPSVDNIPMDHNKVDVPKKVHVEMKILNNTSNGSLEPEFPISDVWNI

T2: PF3D7_0800200 (ATS domain, 2,466-2,858 aa)-His (Plasmodium falciparum, UniProt Q8IAK2 2466-2858)
T2 construct: Cloned into pET-28a; also called ATS-His; PfEMP1 ATS; source: E. coli BL21 (DE3), purified
T2 sequence: T1 sequence

B1: PF3D7_1372300-(130-206)-GST (domain or fragment)
chain: NQYGKSPPKITWQGCSYDCNMMVSTLETEQTNRFYNLLNKKAPIDEIKSFIRSCIDEFDKLHTDLYVKYEKIFSEQK
notes: PF3D7_1372300, a PHIST/PHISTa-like protein of Plasmodium falciparum, residues 130-206; purified 'according to the methods described above'; also called PF3D7_1372300 (residues 130-206); source: E. coli BL21 (DE3), purified
B2: PF3D7_1372300-(130-206)-GST (domain or fragment)
chain: B1 chain
notes: PF3D7_1372300, PHIST/PHISTa-like protein of Plasmodium falciparum, residues 130-206; source: E. coli BL21 (DE3), purified (according to the methods described for the other recombinant proteins)
B3: PF3D7_1372300-(27-129)-GST (domain or fragment)
chain: RNEIHKNSLGFGKNDNIYSRNLAQLKLSNYSLLKDSKFESVTEQLTREELYELFDLLVQVPPRTYLLNIWNHKNGICRQGTKDLLKNLRGIAPKLTYRHTGNT
notes: PF3D7_1372300, a PHIST/PHISTa-like protein of Plasmodium falciparum, residues 27-129; purified 'according to the methods described above'; also called PF3D7_1372300 (residues 27-129); source: E. coli BL21 (DE3), purified
B4: PF3D7_1372300-(27-129)-GST (domain or fragment)
chain: B3 chain
notes: PF3D7_1372300, PHIST/PHISTa-like protein of Plasmodium falciparum, residues 27-129; source: E. coli BL21 (DE3), purified (according to the methods described for the other recombinant proteins)
B5: PF3D7_1372300 (27-206 aa)-GST (domain or fragment)
chain: RNEIHKNSLGFGKNDNIYSRNLAQLKLSNYSLLKDSKFESVTEQLTREELYELFDLLVQVPPRTYLLNIWNHKNGICRQGTKDLLKNLRGIAPKLTYRHTGNTNQYGKSPPKITWQGCSYDCNMMVSTLETEQTNRFYNLLNKKAPIDEIKSFIRSCIDEFDKLHTDLYVKYEKIFSEQK
notes: PF3D7_1372300, a PHIST/PHISTa-like protein of Plasmodium falciparum, residues 27-206 (without the 25-residue signal peptide), amplified from P. falciparum cDNA; the reverse primer carries a stop codon; also called PF3D7_1372300-GST; 1372300-GST; source: E. coli BL21 (DE3), purified
B6: PF3D7_1372300 (27-206 aa)-GST (domain or fragment)
chain: B5 chain
notes: PF3D7_1372300, PHIST/PHISTa-like protein of Plasmodium falciparum, residues 27-206 (without the 25 amino acid signal peptide), amplified from P. falciparum cDNA; Cloned into pGEX-4T-1; also called PF3D7_1372300-GST; PHIST/PHISTa-like protein; source: E. coli BL21 (DE3), purified

Tests used:
[1] = target: PF3D7_0800200 (ATS domain, 2,466-2,858 aa)-His (Plasmodium falciparum) (UniProt Q8IAK2); experiment: BLI; Octet K2; ATS-His loaded onto Ni-NTA biosensors; GST-tagged analyte diluted from 1,000 to 62.5 nM in PBS with 0.02% Tween-20; association and dissociation 5 min each; non-linear global fit
[2] = target: T1, PF3D7_0800200 (acidic C-terminal …); experiment: BLI; Octet K2 (ForteBio); ATS-His loaded onto Ni-NTA biosensors; GST-tagged protein in solution diluted from 1,000 to 62.5 nM in PBS with 0.02% Tween-20; association and dissociation 5 min each; non-linear global fit; KD calculated as Kdis/Kon; details: both partners purified
[3] = target: T2, PF3D7_0800200 (ATS domain, 2,466-2,858 …); experiment: BLI; Octet K2; ATS-His loaded onto Ni-NTA biosensors; GST-tagged analyte diluted from 1,000 to 62.5 nM in PBS with 0.02% Tween-20; association and dissociation 5 min each; non-linear global fit; details: both partners purified

| Molecule | Kd [1] [nM] | koff [2] [s⁻¹] | kon [2] [M⁻¹ s⁻¹] | Kd [3] [nM] |
| --- | --- | --- | --- | --- |
| GST | < 0.001 | – | – | – |
| B1 | – | 0.000158 | 6960 | – |
| B2 | – | – | – | 22.6 |
| B3 | – | 0.000844 | 6630 | – |
| B4 | – | – | – | 127 |
| B5 | – | 0.000756 | 6330 | – |
| B6 | – | – | – | 119 |
